± gives the uncertainty stated by the source.
Test: protein stability index of a GFP-peptide fusion (yeast GPS) (PSI 1-4); higher = more stable; sorted into four equal gates, so the index is relative within each strain
Settings: pdr5∆
Outline: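 Mid-log yeast cultures in leucine-free medium, carrying a pooled plasmid library, were sorted into four equal gates by their GFP/Cherry fluorescence ratio. Each plasmid expressed Cherry along with GFP fused upstream of a tiled 17-residue yeast protein peptide. Plasmids recovered from each gate were PCR-amplified and Illumina-sequenced, with reads assigned to strains by barcodes. The protein stability index was obtained by summing each gate's read frequency weighted by its gate number.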

For YVRKHDPLNSNIFSEAV [PRP28], the protein stability index was 2.76 ± 0.089.

Same assay, conditions: san1∆

In order of rising protein stability index:
1. YSLIRETNGYDPFSIYG [SNF5]  1.15 ± 0.18
2. YSRSVDKEWVFAALSDS [SSN2]  1.41 ± 0.12
3. YLRVSFKNTRETAQAIN [RPL17A]  1.5 ± 0.1
4. YKTSKAAQDVWNRADNH [FAS1]  1.71 ± 0.29
5. YNSRPRSVRIPWYNNPV [PRP8]  1.73 ± 0.088
6. YSRISKLKQLLDESSEQ [YIL149C/MLP2]  1.73 ± 0.14
7. YLNSRIIPTTLEEQQQL [YML103C/NUP188]  1.82 ± 0.071
8. YSKIPNILSNKPGQNNR [RRP6]  1.99 ± 0.16
9. YPLPKFPTTSHESLVTT [MED8]  2.12 ± 0.08
10. YLEESFTNLGIIVQYLT [RGR1]  2.16 ± 0.19
11. YLLSIWVKKFKWAGIKT [CYT1]  2.17 ± 0.098
12. YLESLFAKQVDVQLERV [IRR1]  2.36 ± 0.12
13. YKIKGRNNSKSVLLKKL [SRP72]  2.42 ± 0.26
14. YSRITLIIDDPSKGQSL [RPP1]  2.42 ± 0.048
15. YRATSLDPSLRAPIYHS [YML031W/NDC1]  2.44 ± 0.058
16. YSSILGNSFNKSSNDTI [YCG1]  2.62 ± 0.037
17. YVNALADVLYKTAFKPH [QCR2]  2.72 ± 0.038
18. YSLASVTLKGAKALESL [POP1]  2.83 ± 0.045
19. YVRKHDPLNSNIFSEAV [PRP28]  2.9 ± 0.055
20. YKATATGPKQQEITTNL [SCL1]  2.93 ± 0.057
21. YQRSKRVNNPNVSLIKI [RPL33A]  2.93 ± 0.059
22. YNDSATSGEAAALGMGL [RPN2]  2.99 ± 0.078
23. YVLRNVLRIPEEYLDAN [MTW1]  3 ± 0.061
24. YSFGGLLMRLEGNYRNL [RPB8]  3.06 ± 0.17
25. YVDEQSKNELKKAFTSY [RPS16A]  3.07 ± 0.051
26. YQELGSLQSSSQTQLEN [MED2]  3.08 ± 0.08
27. YKLVNKNKENNTFTWNH [RPN4]  3.09 ± 0.082
28. YMEPFDLDLNEQVRKMY [NSL1]  3.1 ± 0.068
29. YQNRSTRSQFCLNTQRG [RRI1]  3.1 ± 0.046
30. YLEENKSDSQYRFYEYI [MED1]  3.12 ± 0.069
31. YKLGKVKKVQLGKKGVP [RPS4A]  3.19 ± 0.049
32. YNIDANVIDTQRKNGVT [ECM29]  3.26 ± 0.12
33. YRSCETQDESEIKDAET [SMC4]  3.31 ± 0.16
34. YKLNVRSNDPQSSLSKV [NUT2]  3.33 ± 0.071
35. YLKKREAGEVKDDGAFV [RPL10]  3.37 ± 0.044
36. YQDIEGGFEDVEEYTWS [RPB2]  3.49 ± 0.066

Same assay, conditions: ubr1∆

In order of falling protein stability index:
1. YQDIEGGFEDVEEYTWS [RPB2]  3.44 ± 0.099
2. YKLNVRSNDPQSSLSKV [NUT2]  3.41 ± 0.095
3. YKATATGPKQQEITTNL [SCL1]  3.29 ± 0.078
4. YLKKREAGEVKDDGAFV [RPL10]  3.27 ± 0.1
5. YQRSKRVNNPNVSLIKI [RPL33A]  3.21 ± 0.045
6. YQELGSLQSSSQTQLEN [MED2]  3.17 ± 0.072
7. YSEEPREKVRKLSQYVQ [FAS2]  3.16 ± 0.26
8. YLEENKSDSQYRFYEYI [MED1]  3.13 ± 0.086
9. YVDEQSKNELKKAFTSY [RPS16A]  3.13 ± 0.052
10. YKLVNKNKENNTFTWNH [RPN4]  3.12 ± 0.21
11. YVRKHDPLNSNIFSEAV [PRP28]  3.1 ± 0.12
12. YQNRSTRSQFCLNTQRG [RRI1]  2.97 ± 0.034
13. YKLGKVKKVQLGKKGVP [RPS4A]  2.94 ± 0.11
14. YVLRNVLRIPEEYLDAN [MTW1]  2.82 ± 0.088
15. YSSILGNSFNKSSNDTI [YCG1]  2.81 ± 0.049
16. YVNALADVLYKTAFKPH [QCR2]  2.81 ± 0.05
17. YLEESFTNLGIIVQYLT [RGR1]  2.8 ± 0.09
18. YSRITLIIDDPSKGQSL [RPP1]  2.78 ± 0.053
19. YSLASVTLKGAKALESL [POP1]  2.77 ± 0.052
20. YSFGGLLMRLEGNYRNL [RPB8]  2.56 ± 0.088
21. YLESLFAKQVDVQLERV [IRR1]  2.5 ± 0.051
22. YNSRPRSVRIPWYNNPV [PRP8]  2.49 ± 0.049
23. YMEPFDLDLNEQVRKMY [NSL1]  2.46 ± 0.052
24. YRATSLDPSLRAPIYHS [YML031W/NDC1]  2.44 ± 0.037
25. YNDSATSGEAAALGMGL [RPN2]  2.43 ± 0.084
26. YSRISKLKQLLDESSEQ [YIL149C/MLP2]  2.4 ± 0.053
27. YLLSIWVKKFKWAGIKT [CYT1]  2.29 ± 0.17
28. YLNSRIIPTTLEEQQQL [YML103C/NUP188]  2.13 ± 0.052
29. YSKIPNILSNKPGQNNR [RRP6]  1.77 ± 0.047
30. YPLPKFPTTSHESLVTT [MED8]  1.72 ± 0.063
31. YVAIVVDPLKSLEDKIL [RRI1]  1.68 ± 0.081
32. YLRVSFKNTRETAQAIN [RPL17A]  1.31 ± 0.034
33. YSRSVDKEWVFAALSDS [SSN2]  1.3 ± 0.043
34. YSIFLENENILIKAKNF [SMC1]  1.14 ± 0.1
35. YKIKGRNNSKSVLLKKL [SRP72]  1.06 ± 0.11
36. YSLIRETNGYDPFSIYG [SNF5]  1.06 ± 0.084
